According to publication PMC9400901, “Advanced Insights into Catalytic and Structural Features of the Zinc‐Dependent Alcohol Dehydrogenase from Thauera aromatica” (Chembiochem, 2022):

Key:
Type in all cases: biochemical, Thauera aromatica
[1] = substrate: O=C1CCCCC1=O; assay: Michaelis-Menten kinetics, reduction; photometric standard assay or FDH-coupled biotransformation; settings: NADH 0.25 mmol L^−1, 100 mmol L^−1 potassium phosphate pH 6.5, room temperature, solubility limit reached
Description: (§1) Michaelis-Menten kinetics, reduction; photometric standard assay or FDH-coupled biotransformation on ThaADH

[2] = substrate: O=C1CCCCC1Br; assay: as above; settings: NADH 0.25 mmol L^−1, potassium phosphate pH 6.5, room temperature, 3 % (v/v) DMSO, racemic substrate
Description: as §1

[3] = substrate: O=C1CCCCC1Cl; assay: as above; settings: NADH 0.25 mmol L^−1, potassium phosphate pH 6.5, room temperature, 1 % (v/v) DMSO, racemic substrate
Description: as §1

[4] = substrate: CC1=CC(O)CCC1; assay: purified protein; settings: oxidation, standard assay: NAD+ 1 mmol L^−1, 100 mmol L^−1 HEPES pH 9.0, 40 °C, pH 9.0
[5] = substrate: NC(=O)C1=CN([C@@H]2O[C@H](COP(=O)(O)OP(=O)(O)OC[C@H]3O[C@@H](n4cnc5c(N)ncnc54)[C@H](O)[C@@H]3O)[C@@H](O)[C@H]2O)C=CC1; assay: purified protein; settings: reduction, co-substrate not given, standard assay pH 6.5, 40 °C, pH 6.5, varied: cofactor
[6] = substrate: NC(=O)c1ccc[n+]([C@@H]2C[C@H](COP(=O)(O)OP(=O)(O)OC[C@H]3O[C@@H](n4cnc5c(N)ncnc54)[C@H](O)[C@@H]3O)[C@@H](O)[C@H]2O)c1; assay: purified protein; settings: oxidation, co-substrate not given, standard assay pH 9.0, 40 °C, pH 9.0, varied: cofactor
[7] = substrate: NC(=O)c1ccc[n+]([C@@H]2O[C@H](COP(=O)(O)OP(=O)(O)OC[C@H]3O[C@@H](n4cnc5c(N)ncnc54)[C@H](O)[C@@H]3O)[C@@H](O)[C@H]2O)c1; assay: purified protein; settings: oxidation, co-substrate not given, standard assay pH 9.0, 40 °C, pH 9.0, varied: cofactor

B1: ThaADH (Thauera aromatica) (protein)
chain: MSSNPHRWMMTSPGAPMVRAEFEIGELSADQVVVAVAGCGVCHTDLGYYYDSVRTNHALPLALGHEISGRVVQAGANAAQWLGRAVIVPAVMPCGTCELCTSGHGTICRDQVMPGNDIQGGFASHVVVPARGLCPVDEARLAAAGLQLADVSVVADAVTTPYQAVLQAGVEPGDVAVVIGVGGVGGYAVQIANAFGASVVAIDVDPAKLEMMSKHGAALTLNAREISGRDLKKAIEAHAKANGLRLTRWKIFECSGTGAGQTSAYGLLTHGATLAVVGFTMDKVEVRLSNLMAFHARALGNWGCLPEYYPAALDLVLDKKIDLASFIERHPLDQIGEVFAAAHAHKLTRRAILTP
notes: full-length WT, recombinant in E. coli BL21(DE3), pET22b; C-terminal Strep-tag for all kinetics, N-terminal His-tag for crystals; about 40 kDa monomer, dimer in solution (89 kDa by SEC; tetramer and higher in blue native PAGE), two zinc per monomer
Km [1]: 68.1 ± 33.8 mM
Vmax [1]: 53.3 µmol/min/mg
kcat [1]: 39.1 ± 10.1 s⁻¹
kcat/Km [1]: 570 ± 430 M⁻¹ s⁻¹
Km [2]: 24.1 ± 6.8 mM
Vmax [2]: 6.3 µmol/min/mg
kcat [2]: 4.62 ± 0.47 s⁻¹
kcat/Km [2]: 190 ± 70 M⁻¹ s⁻¹
Km [3]: 33.1 ± 10.4 mM
Vmax [3]: 14.9 µmol/min/mg
kcat [3]: 10.9 ± 1.38 s⁻¹
kcat/Km [3]: 330 ± 150 M⁻¹ s⁻¹
Km [4]: 21.6 ± 1.9 mM
Vmax [4]: 2.4 µmol/min/mg
kcat [4]: 1.77 ± 0.05 s⁻¹
kcat/Km [4]: 80 ± 10 M⁻¹ s⁻¹
Km [5]: 0.07 ± 0.02 mM
Vmax [5]: 9.1 µmol/min/mg
kcat [5]: 6.63 ± 0.74 s⁻¹
kcat/Km [5]: 94700 ± 37600 M⁻¹ s⁻¹
Km [6]: 0.7 ± 0.1 mM
Vmax [6]: 0.9 µmol/min/mg
kcat [6]: 0.66 ± 0.04 s⁻¹
kcat/Km [6]: 940 ± 190 M⁻¹ s⁻¹
Km [7]: 1.0 ± 0.2 mM
Vmax [7]: 2.2 µmol/min/mg
kcat [7]: 1.63 ± 0.1 s⁻¹
kcat/Km [7]: 1630 ± 430 M⁻¹ s⁻¹
